B1: HDV Ribozyme (parent)
chain: GGCCGGCAUGGUCCCAGCCUCCUCGCUGGCGCCGGCUGGGCAACAUUCCGAGGGGACCGUCCCCUCGGUAAUGGCGAAUGGGACCCA

Variants of: B1
Test: self-cleavage, relative activity (ratio to wild type); higher = more cleavage; co-transcriptional

In order of falling self-cleavage:
1. GGCCGGCAUGGUCCCAGCCUCCUCGCUGGCGCCCGCUGGGCAACAUUCCGAGGGGACCGUCCCCUCGGGAAUGGCGAAUGGGACCCA [G34C U69G]  0.703
2. GGCCGGCAUGGUCCCAGCCUCCUCGCUGGCGCCCGCUGGGCAACAUUCCGAGGGGACCGUCCCCCCGGUAAUGGCGAAUGGGACCCA [G34C U65C]  0.573
3. GGCCGGCAUGGUCCCAGCCUCCUCGCUGGCGCCUGCUGGGCAACAUUCCGAGGGGACCGUGCCCUCGGUAAUGGCGAAUGGGACCCA [G34U C61G]  0.378
4. GGCCGGCAUGGUCCCAGCCUCCUCGCUGGCGCCUGCUGGGCAACAUUCCGGGGGGACCGUCCCCUCGGUAAUGGCGAAUGGGACCCA [G34U A51G]  0.339
5. GGCCGGCAUGGUCCCAGCCUCCUCGCUGGCGCCCGCUGGGCAACACUCCGAGGGGACCGUCCCCUCGGUAAUGGCGAAUGGGACCCA [G34C U46C]  0.332
6. GGCCGGCAUGGUCCCAGCCUCCUCGCUGGCGCCCGCAGGGCAACAUUCCGAGGGGACCGUCCCCUCGGUAAUGGCGAAUGGGACCCA [G34C U37A]  0.297
7. GGCCGGCAUGGUCCCAGCCUCCUCGCUGGCGCCUGCUGGGCAACAUUCCGAGGGGACCGUCCCGUCGGUAAUGGCGAAUGGGACCCA [G34U C64G]  0.277
8. GGCCGGCAUGGUCCCAGCCUCCUCGCUGGCGCCUGCUGGGCAACAUUCCGAGGGGACCGUCCCAUCGGUAAUGGCGAAUGGGACCCA [G34U C64A]  0.268
9. GGCCGGCAUGGUCCCAGCCUCCUCGCUGGCGCCUGCUGGGCUACAUUCCGAGGGGACCGUCCCCUCGGUAAUGGCGAAUGGGACCCA [G34U A42U]  0.252
10. GGCCGGCAUGGUCCCAGCCUCCUCGCUGGCGCCUGCUGGGCAACAUUACGAGGGGACCGUCCCCUCGGUAAUGGCGAAUGGGACCCA [G34U C48A]  0.251
11. GGCCGGCAUGGUCCCAGCCUCCUCGCUGGCGCCCGCUGGGCAACAUUCCGAGGGGACCGUCCCCUCGGCAAUGGCGAAUGGGACCCA [G34C U69C]  0.249
12. GGCCGGCAUGGUCCCAGCCUCCUCGCUGGCGCCCGCUGGGCAACAUUCCGAGGGGACCGCCCCCUCGGUAAUGGCGAAUGGGACCCA [G34C U60C]  0.244
13. GGCCGGCAUGGUCCCAGCCUCCUCGCUGGCGCCUGCUGGGCACCAUUCCGAGGGGACCGUCCCCUCGGUAAUGGCGAAUGGGACCCA [G34U A43C]  0.243
14. GGCCGGCAUGGUCCCAGCCUCCUCGCUGGCGCCCGCUGGGCAACAUUCCGAGGGGACCGUCCCCUCGGUAAGGGCGAAUGGGACCCA [G34C U72G]  0.222
15. GGCCGGCAUGGUCCCAGCCUCCUCGCUGGCGCCUGCUGGGCAACAUUCCGAGGGGCCCGUCCCCUCGGUAAUGGCGAAUGGGACCCA [G34U A56C]  0.219
16. GGCCGGCAUGGUCCCAGCCUCCUCGCUGGCGCCUGCUGGGCAACAUUCCGAGGGGACCGUCCCCUCGGUAAUGGGGAAUGGGACCCA [G34U C75G]  0.214
17. GGCCGGCAUGGUCCCAGCCUCCUCGCUGGCGCCUGCUGGGCAACAUUCCGAGGGGACCGUCCCCUCGGUAUUGGCGAAUGGGACCCA [G34U A71U]  0.208
18. GGCCGGCAUGGUCCCAGCCUCCUCGCUGGCGCCUGCUGGGCAACAUUCCGAGGGGACCGUUCCCUCGGUAAUGGCGAAUGGGACCCA [G34U C61U]  0.208
19. GGCCGGCAUGGUCCCAGCCUCCUCGCUGGCGCCCGCUGGGCAACAUUCCGAGGGGACCGUCCCCUCGGUAAUGGCGAAUUGGACCCA [G34C G80U]  0.203
20. GGCCGGCAUGGUCCCAGCCUCCUCGCUGGCGCCCGCUGGGCAACAUCCCGAGGGGACCGUCCCCUCGGUAAUGGCGAAUGGGACCCA [G34C U47C]  0.185
21. GGCCGGCAUGGUCCCAGCCUCCUCGCUGGCGCCUGCUGGGCAACAUUCCGAGGGGACCGUCCCCUCGGUUAUGGCGAAUGGGACCCA [G34U A70U]  0.182
22. GGCCGGCAUGGUCCCAGCCUCCUCGCUGGCGCCUGCUGGGCAACAUUCCGAGGGGACCGUCCCCUCGGUAAUGGCGAAUGGGAACCA [G34U C84A]  0.176
23. GGCCGGCAUGGUCCCAGCCUCCUCGCUGGCGCCUGCUGGGCAACAUUCCGAGGGGAUCGUCCCCUCGGUAAUGGCGAAUGGGACCCA [G34U C57U]  0.174
24. GGCCGGCAUGGUCCCAGCCUCCUCGCUGGCGCCUGCUGGGCAAGAUUCCGAGGGGACCGUCCCCUCGGUAAUGGCGAAUGGGACCCA [G34U C44G]  0.173
25. GGCCGGCAUGGUCCCAGCCUCCUCGCUGGCGCCUGCUGGGCAACAUUCCGAGGGGACCGUCCCCUCGGUCAUGGCGAAUGGGACCCA [G34U A70C]  0.17
26. GGCCGGCAUGGUCCCAGCCUCCUCGCUGGCGCCCGCUGGGCAACAUUCCGAGGGGACCGUCCCCUCGGUAAAGGCGAAUGGGACCCA [G34C U72A]  0.17
27. GGCCGGCAUGGUCCCAGCCUCCUCGCUGGCGCCCGCUGGGCAACAUUCCGAGGGGACCGUCCCCUCGGUAAUCGCGAAUGGGACCCA [G34C G73C]  0.17
28. GGCCGGCAUGGUCCCAGCCUCCUCGCUGGCGCCUGCUGGGCAACAUUCCGAGGGGACCGUCCCCUCGGUAAUGGCGAAUGGGGCCCA [G34U A83G]  0.169
29. GGCCGGCAUGGUCCCAGCCUCCUCGCUGGCGCCUGCUGGGCAACAUUCGGAGGGGACCGUCCCCUCGGUAAUGGCGAAUGGGACCCA [G34U C49G]  0.166
30. GGCCGGCAUGGUCCCAGCCUCCUCGCUGGCGCCUGCUGGGCAACAUUCCGAGGGGACCGUCCUCUCGGUAAUGGCGAAUGGGACCCA [G34U C63U]  0.166
31. GGCCGGCAUGGUCCCAGCCUCCUCGCUGGCGCCUGCUGGGCAACAUUCCGAGGGGACCGUCCACUCGGUAAUGGCGAAUGGGACCCA [G34U C63A]  0.164
32. GGCCGGCAUGGUCCCAGCCUCCUCGCUGGCGCCUGCUGGGCAACAUUCCGAGGGGACCGUCCCCUCGGUAGUGGCGAAUGGGACCCA [G34U A71G]  0.154
33. GGCCGGCAUGGUCCCAGCCUCCUCGCUGGCGCCUGCUGGGCAACAUUGCGAGGGGACCGUCCCCUCGGUAAUGGCGAAUGGGACCCA [G34U C48G]  0.151
34. GGCCGGCAUGGUCCCAGCCUCCUCGCUGGCGCCUGCUGGGCAACAUUCCGAGGGGACCGUCCCCUCGGUAAUGGCGAAUGGGACCCU [G34U A87U]  0.141
35. GGCCGGCAUGGUCCCAGCCUCCUCGCUGGCGCCCGCUGGGCAACAUUCCGAGGGGACCGUCCCCUCGGUAAUGUCGAAUGGGACCCA [G34C G74U]  0.136
36. GGCCGGCAUGGUCCCAGCCUCCUCGCUGGCGCCUGCUGGGAAACAUUCCGAGGGGACCGUCCCCUCGGUAAUGGCGAAUGGGACCCA [G34U C41A]  0.133
37. GGCCGGCAUGGUCCCAGCCUCCUCGCUGGCGCCUGCUGGGCAACAUUCCGAGGGGACCGUCCCCUCGGUAAUGGCGAAUGGGACCCG [G34U A87G]  0.122
38. GGCCGGCAUGGUCCCAGCCUCCUCGCUGGCGCCUGCUGGGCAACAUUCCGAGGGGACCGUCCCCUCGGUAAUGGCGAAUGGGACCCC [G34U A87C]  0.119
39. GGCCGGCAUGGUCCCAGCCUCCUCGCUGGCGCCUGCUGGGCAACAUUCCGAGGGGACCGUCGCCUCGGUAAUGGCGAAUGGGACCCA [G34U C62G]  0.117
40. GGCCGGCAUGGUCCCAGCCUCCUCGCUGGCGCCUGCUGGGCAACCUUCCGAGGGGACCGUCCCCUCGGUAAUGGCGAAUGGGACCCA [G34U A45C]  0.117
41. GGCCGGCAUGGUCCCAGCCUCCUCGCUGGCGCCUGCUGGGCAACAUUUCGAGGGGACCGUCCCCUCGGUAAUGGCGAAUGGGACCCA [G34U C48U]  0.112
42. GGCCGGCAUGGUCCCAGCCUCCUCGCUGGCGCCUGCUGGGCAACAUUCCGAGGGGACAGUCCCCUCGGUAAUGGCGAAUGGGACCCA [G34U C58A]  0.111
43. GGCCGGCAUGGUCCCAGCCUCCUCGCUGGCGCCUGCUGGGCAACAUUCCGAGGGGACCGUCCCCUCGGUAAUGGUGAAUGGGACCCA [G34U C75U]  0.109
44. GGCCGGCAUGGUCCCAGCCUCCUCGCUGGCGCCUGCUGGGCAACAUUCCGAGGGGACCGUCCCCUCGGUAAUGGAGAAUGGGACCCA [G34U C75A]  0.107
45. GGCCGGCAUGGUCCCAGCCUCCUCGCUGGCGCCUGAUGGGCAACAUUCCGAGGGGACCGUCCCCUCGGUAAUGGCGAAUGGGACCCA [G34U C36A]  0.106
46. GGCCGGCAUGGUCCCAGCCUCCUCGCUGGCGCCUGCUGGGCAUCAUUCCGAGGGGACCGUCCCCUCGGUAAUGGCGAAUGGGACCCA [G34U A43U]  0.104
47. GGCCGGCAUGGUCCCAGCCUCCUCGCUGGCGCCUGCUGGGCAACAUUCCGAGGGGACCGUCCCCUCGGUGAUGGCGAAUGGGACCCA [G34U A70G]  0.0997
48. GGCCGGCAUGGUCCCAGCCUCCUCGCUGGCGCCUGCUGGGCAGCAUUCCGAGGGGACCGUCCCCUCGGUAAUGGCGAAUGGGACCCA [G34U A43G]  0.0978
49. GGCCGGCAUGGUCCCAGCCUCCUCGCUGGCGCCCGCUGGGCAACAUUCCGAGGGGACCGGCCCCUCGGUAAUGGCGAAUGGGACCCA [G34C U60G]  0.0978
50. GGCCGGCAUGGUCCCAGCCUCCUCGCUGGCGCCUGCUGGGCCACAUUCCGAGGGGACCGUCCCCUCGGUAAUGGCGAAUGGGACCCA [G34U A42C]  0.0963
51. GGCCGGCAUGGUCCCAGCCUCCUCGCUGGCGCCCGCUGGGCAACAUUCCGAGGGGACCGUCCCCUCGGUAAUGCCGAAUGGGACCCA [G34C G74C]  0.0875
52. GGCCGGCAUGGUCCCAGCCUCCUCGCUGGCGCCUGCUGGGCAACAUUCCGAGGGGACCGUCCCCUCGGUAAUGGCGGAUGGGACCCA [G34U A77G]  0.086
53. GGCCGGCAUGGUCCCAGCCUCCUCGCUGGCGCCUGCUGGGCAACAUUCCGAGGGGACGGUCCCCUCGGUAAUGGCGAAUGGGACCCA [G34U C58G]  0.0811
54. GGCCGGCAUGGUCCCAGCCUCCUCGCUGGCGCCUGCUGGGGAACAUUCCGAGGGGACCGUCCCCUCGGUAAUGGCGAAUGGGACCCA [G34U C41G]  0.0723
55. GGCCGGCAUGGUCCCAGCCUCCUCGCUGGCGCCUGCUGGGCAACAUUCCGCGGGGACCGUCCCCUCGGUAAUGGCGAAUGGGACCCA [G34U A51C]  0.0707
56. GGCCGGCAUGGUCCCAGCCUCCUCGCUGGCGCCUGCUGGGCAACAUUCCGAGGGGACCGUCCCCUCGGUAAUGGCGCAUGGGACCCA [G34U A77C]  0.0678
57. GGCCGGCAUGGUCCCAGCCUCCUCGCUGGCGCCUGCUGGGCAACGUUCCGAGGGGACCGUCCCCUCGGUAAUGGCGAAUGGGACCCA [G34U A45G]  0.0652
58. GGCCGGCAUGGUCCCAGCCUCCUCGCUGGCGCCCGCUGGGCAACAUUCCGAGGGGACCGUCCCCUCGGUAAUGGCGAAUGGUACCCA [G34C G82U]  0.0652
59. GGCCGGCAUGGUCCCAGCCUCCUCGCUGGCGCCCGCUGGGCAACAUUCCGAGGGGACCGUCCCCUCGGUAAUGGCGAAUGUGACCCA [G34C G81U]  0.0639
60. GGCCGGCAUGGUCCCAGCCUCCUCGCUGGCGCCCGCUGGGCAACAUUCCGAGGGGACCGUCCCCUCGGUAAUGGCGAAGGGGACCCA [G34C U79G]  0.0615
61. GGCCGGCAUGGUCCCAGCCUCCUCGCUGGCGCCUGUUGGGCAACAUUCCGAGGGGACCGUCCCCUCGGUAAUGGCGAAUGGGACCCA [G34U C36U]  0.0482
62. GGCCGGCAUGGUCCCAGCCUCCUCGCUGGCGCCCGCUGGGCAACAUUCCGAGGGGACCGUCCCCUCGGUAAUGACGAAUGGGACCCA [G34C G74A]  0.0354
63. GGCCGGCAUGGUCCCAGCCUCCUCGCUGGCGCCCGCUGGGCAACAUUCCGAGGGGACCGUCCCCUCGGUAAUGGCGAAUGGAACCCA [G34C G82A]  0.0308
64. GGCCGGCAUGGUCCCAGCCUCCUCGCUGGCGCCUGCUGGGCAAUAUUCCGAGGGGACCGUCCCCUCGGUAAUGGCGAAUGGGACCCA [G34U C44U]  0.0241
